Where two headings read alike, the source gives them in different places.
How the values were obtained:
[1] = biological target: T1, human PD-L1 (full-length, on cells) (human, UniProt Q9NZQ7 19-290); experiment: FACS on huPD-L1-CHOK cells
T1 construct: whole, on cells; Expressed on CHO-s cells; also called human PD-L1-CHO; PD-L1-CHO

[2] = biological target: T1, human PD-L1 (full-length, on cells); experiment: FACS blocking on huPDL1-CHO cells; blocked ligand PD-1-Biotin 1 µg/mL; MFI = bound PD-1
[3] = biological target: T2, mouse PD-L1 (full-length, on CHO-s cells) (mouse, UniProt Q9EP73 19-290); experiment: FACS on mouse PD-L1-CHOK cells
T2 construct: whole, on cells; also called mouse PD-L1-CHO
T2 sequence (Q9EP73 19-290): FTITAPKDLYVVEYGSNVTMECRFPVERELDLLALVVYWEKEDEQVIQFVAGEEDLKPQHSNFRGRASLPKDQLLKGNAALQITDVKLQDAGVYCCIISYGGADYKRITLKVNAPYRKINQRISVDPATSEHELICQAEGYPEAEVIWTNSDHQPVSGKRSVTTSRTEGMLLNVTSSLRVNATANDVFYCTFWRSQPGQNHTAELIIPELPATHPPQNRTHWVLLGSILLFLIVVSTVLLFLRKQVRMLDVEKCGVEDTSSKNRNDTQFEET

[4] = biological target: T1, human PD-L1 (full-length, on cells); experiment: FACS competition, human PD-L1-CHO cells, competitor biotin-labeled PD-1-Fc 1 µg/mL
[5] = biological target: T1, human PD-L1 (full-length, on cells); experiment: FACS on human PD-L1-CHO cells, PE anti-human IgG Fc
From the text: 1) collecting the cultured human PD-L1-CHO cells, centrifuging the collected cells at 300 g to remove the supernatant, resuspending the cells in a formulated FACS buffer and counting the cells, and adjusting the density of the cell suspension to 2×10⁶ cells/mL;

[6] = biological target: T1, human PD-L1 (full-length, on cells); experiment: FACS, human PD-L1-CHO cells
From the text: (§1) In order to evaluate 4 derisked VHH-Fc candidate antibodies, an FACS method is used to detect the binding activities thereof to cell expressed human PD-L1 and monkey PD-L1 proteins.

[7] = biological target: T3, rhesus monkey PD-L1 (full-length, on CHO-s cells) (rhesus monkey, UniProt F6VEW6 19-290); experiment: FACS, monkey PD-L1-CHO cells
T3 construct: whole, on cells; also called monkey PD-L1-CHO
From the text: as §1

[8] = biological target: T1, human PD-L1 (full-length, on cells); experiment: FACS blocking on PD-L1-CHO cells, lysate samples; the blocked ligand is not named on the sheet or in Example 17
[9] = biological target: T1, human PD-L1 (full-length, on cells); experiment: FACS on PD-L1-CHO cells, anti-Llama IgG FITC
[10] = biological target: T1, human PD-L1 (full-length, on cells); experiment: FACS competition, human PD-L1-CHO cells, competitor biotin-labeled CD80 1 µg/mL
[11] = biological target: T1, human PD-L1 (full-length, on cells); experiment: FACS, human PD-L1-CHO cells; remark: listed apart in the source
[12] = biological target: T1, human PD-L1 (full-length, on cells); experiment: FACS competition, human PD-L1-CHO cells, competitor biotin-labeled PD-1-Fc 1 µg/mL; remark: listed apart in the source
[13] = biological target: T3, rhesus monkey PD-L1 (full-length, on …); experiment: FACS, monkey PD-L1-CHO cells; remark: listed apart in the source
From the text: In order to evaluate the cross-reactivity of the VHH-Fc candidate antibodies to monkey PD-L1 and mouse PD-L1, an FACS method is used to detect the binding activity thereof to the mouse and rhesus monkey PD-L1 protein on cells.

T1 sequence (Q9NZQ7 19-290): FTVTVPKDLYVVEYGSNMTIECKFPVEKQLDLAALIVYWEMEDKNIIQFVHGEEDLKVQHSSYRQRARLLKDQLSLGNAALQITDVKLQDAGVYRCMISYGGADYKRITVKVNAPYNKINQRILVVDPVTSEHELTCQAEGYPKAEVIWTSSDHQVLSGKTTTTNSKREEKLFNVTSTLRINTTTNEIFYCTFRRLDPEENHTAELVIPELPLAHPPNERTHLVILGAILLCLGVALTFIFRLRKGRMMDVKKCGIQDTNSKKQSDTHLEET

B1: NB22D-21-94 (Fc fusion)
chain: EVQLVESGGGLVQPGGSLRLSCAASRTAGNIHGMHWYRQAPGKGREWVGSIFITGNTIVTDSVKGRFTISRDNAKNTLYLQMNTLRAEDTAVYYCAADVRGYGRAWGQGTTVTVSS
notes: not shown: 'full-length antibodies' were constructed
EC50 (read off the curve) [1]: ~0.2 µg/mL
IC50 (read off the curve) [2]: ~0.2 µg/mL

B2: NB22D-21-45-106 (Fc fusion)
chain: EVQLVESGGGLVQPGGSLRLSCAASRRWSNIHGMHWYRQAPGKGREWVGSRFITGNTIVTDSVKGRFTISRDNAKNTLYLQMNTLRAEDTAVYYCAADVRGYGRAWGQGTTVTVSS
notes: as for B1
EC50 (read off the curve) [1]: ~0.2 µg/mL
binding result [3]: binds
IC50 (read off the curve) [2]: ~0.2 µg/mL

B3: NB22D-21-109 (Fc fusion)
chain: EVQLVESGGGLVQPGGSLRLSCAASRTAGYIHGMHWYRQAPGKGREWVGMIFGWGNTIVTDSVKGRFTISRDNAKNTLYLQMNTLRAEDTAVYYCAADVRGYGRAWGQGTTVTVSS
notes: as for B1
EC50 (read off the curve) [1]: ~0.2 µg/mL
EC50 (read off the curve) [3]: ~1 µg/mL
IC50 (read off the curve) [2]: ~0.2 µg/mL

B4: NB22D-21-123 (Fc fusion)
chain: EVQLVESGGGLVQPGGSLRLSCAASPTASNIHGMHWYRQAPGKGREWVGMIFITGLTIVTDSVKGRFTISRDNAKNTLYLQMNTLRAEDTAVYYCAADVSGYGRAWGQGTTVTVSS
notes: as for B1
EC50 (read off the curve) [1]: ~0.2 µg/mL
binding result [3]: binds
IC50 (read off the curve) [2]: ~0.2 µg/mL

B5: NB22D-21-154 (Fc fusion)
chain: EVQLVESGGGLVQPGGSLRLSCAASRTASNAMGMHWYRQAPGKGREWVGMIFRDGNTIVTDSVKGRFTISRDNAKNTLYLQMNTLRAEDTAVYYCAADVRGYGRAWGQGTTVTVSS
notes: as for B1
EC50 (read off the curve) [1]: ~0.2 µg/mL
binding result [3]: binds
IC50 (read off the curve) [2]: ~0.2 µg/mL

B6: NB22D-21-huVH2 (Fc fusion, not shown: a dimerising Fc or GST)
chain: EVQLVESGGGLVQPGGSLRLSCAASRTDSNINGMHWYRQAPGKGREWVGTIFIDGNTIVTDSVKGRFTISRDNAKNTLYLQMNTLRAEDTAVYYCAADVSGYGRAWGQGTTVTVSS
notes: Humanized form of NB22D-21; also called humanized antibody NB22D-21-huVH2; D21-Vh2
IC50 [4]: 1 µg/mL
EC50 (read off the curve) [5]: ~0.1 µg/mL
EC50 [6]: 0.72 µg/mL
EC50 [7]: 1.82 µg/mL

B7: 47 (VHH)
VHH: EVQLVESGGGLVQPGGSLRLSCAASRTLSNIRGMHWYRQAPGKGREWVGTIFIDLNTIVTDSVKGRFTISRDNAKNTLYLQMNTLRAEDTAVYYCAADVSGYGRAWGQGTTVTVSS
notes: also called SY01-D21-47
IC50 (read off the curve) [8]: ~0.3 µg/mL

B8: NB22D-21-4 VHH-Fc chimeric antibody protein (Fc fusion)
chain: EVQLVESGGGLVQPGGSLRLSCAASRTDRNINTMHWYRQAPGKGREWVGTIFIDLNTIVTDSVKGRFTISRDNAKNTLYLQMNTLRAEDTAVYYCAADVSGYGRAWGQGTTVTVSS
notes: not shown: human IgG1 Fc fragment, its N-terminus linked to the C-terminus of the VHH
IC50 [4]: 0.3 µg/mL
EC50 (read off the curve) [1]: ~0.2 µg/mL
binding result [3]: no binding (tested: 20 µg/mL)
EC50 [6]: 0.21 µg/mL
IC50 (read off the curve) [2]: ~0.2 µg/mL
EC50 [7]: 0.3 µg/mL

B9: NB22D-21-8 VHH-Fc chimeric antibody protein (Fc fusion)
chain: EVQLVESGGGLVQPGGSLRLSCAASRTYSNIYGMHWYRQAPGKGREWVGTIFIGSNTIVTDSVKGRFTISRDNAKNTLYLQMNTLRAEDTAVYYCAADVSGYGRAWGQGTTVTVSS
notes: as for B8
EC50 [6]: 0.26 µg/mL
EC50 [7]: 0.7 µg/mL

B10: NB22D-21-17 VHH-Fc chimeric antibody protein (Fc fusion)
chain: EVQLVESGGGLVQPGGSLRLSCAASRTGSNIYGMHWYRQAPGKGREWVGTIFIDWNTIVTDSVKGRFTISRDNAKNTLYLQMNTLRAEDTAVYYCAADVSGYGRAWGQGTTVTVSS
notes: as for B8
EC50 [6]: 1.73 µg/mL
EC50 [7]: 3.25 µg/mL

B11: NB22D-21-24 VHH-Fc chimeric antibody protein (Fc fusion)
chain: EVQLVESGGGLVQPGGSLRLSCAASRTFSNIFGMHWYRQAPGKGREWVGTIFITGNTIVTDSVKGRFTISRDNAKNTLYLQMNTLRAEDTAVYYCAADVSGYGRAWGQGTTVTVSS
notes: as for B8
IC50 [4]: 0.2 µg/mL
EC50 [6]: 0.14 µg/mL
EC50 [7]: 0.39 µg/mL

B12: NB22D-21-huVH1 (Fc fusion, not shown: a dimerising Fc or GST)
chain: EVQLVESGGGLVQPGGSLRLSCAHSRTDSNINGMHWYRQAPGKGREWVGTIFIDGNTIVTDSVKGRFTISRDNAKNTLYLQMNTLRAEDTAVYYCAADVSGYGRAWGQGTTVTVSS
notes: Humanized form of NB22D-21; also called humanized antibody NB22D-21-huVH1
EC50 (read off the curve) [5]: ~0.1 µg/mL

B13: SY01-201 (VHH lysate) (VHH)
VHH: EVQLVESGGGLVQPGGSLRLSCAHSRTDSNIHGMHWYRQAPGKGREWVGTIFIDLNTIVTDSVKGRFTISRDNAKNTLYLQMNTLRAEDTAVYYCAADVSGYGRAWGQGTTVTVSS
notes: Tested as VHH lysate of a monoclone from the phage display vector
binding result [9]: binds

B14: SY01-208 (VHH lysate) (VHH)
VHH: EVQLVESGGGLVQPGGSLRLSCAHSRTDSNIFGMHWYRQAPGKGREWVGTIFIDANTIVTDSVKGRFTISRDNAKNTLYLQMNTLRAEDTAVYYCAADVSGYGRAWGQGTTVTVSS
notes: as for B13
binding result [9]: binds

B15: SY01-D21-8 (VHH lysate) (VHH)
VHH: EVQLVESGGGLVQPGGSLRLSCAASRTYSNIYGMHWYRQAPGKGREWVGTIFIGSNTIVTDSVKGRFTISRDNAKNTLYLQMNTLRAEDTAVYYCAADVSGYGRAWGQGTTVTVSS
IC50 (read off the curve) [8]: ~0.3 µg/mL

B16: SY01-D21-24 (VHH lysate) (VHH)
VHH: EVQLVESGGGLVQPGGSLRLSCAASRTFSNIFGMHWYRQAPGKGREWVGTIFITGNTIVTDSVKGRFTISRDNAKNTLYLQMNTLRAEDTAVYYCAADVSGYGRAWGQGTTVTVSS
IC50 (read off the curve) [8]: ~0.5 µg/mL

B17: SY01-NB-027-M (VHH lysate) (VHH)
VHH: EVQLVESGGGLVQPGGSLRLSCAHSRTDSNINSMHWYRQAPGKGREWVGTWFIDGNTIVTDSVKGRFTISRDNAKNTLYLQMNTLRAEDTAVYYCAADEWMYGRAWGQGTTVTVSS
notes: as for B13
binding result [9]: binds

B18: control antibody KN035 (antibody, V domains shown)
VH: QVQLVESGGGLVQPGGSLRLSCAASGFTFSRRCKAWFRQAPGKERERVAKILTTSGSTYLADSVKGRFTISRDNSKNTVYLQMNSLRAEDTAVYYCAADSFEDPTCTLVTSSGAFQYWGQGTLVTVSS
notes: also called KN035 (control); positive control KN035
IC50 [10]: 0.631 µg/mL
EC50 (read off the curve) [5]: ~0.1 µg/mL
EC50 (read off the curve) [1]: ~0.2 µg/mL
EC50 [11]: 0.39 µg/mL
IC50 [12]: 0.39 µg/mL
EC50 [13]: 0.21 µg/mL
IC50 (read off the curve) [2]: ~0.2 µg/mL

Reference: patent publication US20230002494A1 (SANYOU BIOPHARMACEUTICALS, published 2023)
